Test results reported in US20240325562A1, “INTERNALIZING BINDING MOLECULES” (LinXis B.V., priority 2020, published 2024).

Columns and labels:
rPDGFRB-ECD = target: T1, rPDGFRB-ECD (Rattus norvegicus, UniProt Q05030); experiment: Binding assay on rPDGFRB-ECD; conditions: IRDye800-conjugated, FIG. 15D
T1 sequence (Q05030 32-531 limits assumed): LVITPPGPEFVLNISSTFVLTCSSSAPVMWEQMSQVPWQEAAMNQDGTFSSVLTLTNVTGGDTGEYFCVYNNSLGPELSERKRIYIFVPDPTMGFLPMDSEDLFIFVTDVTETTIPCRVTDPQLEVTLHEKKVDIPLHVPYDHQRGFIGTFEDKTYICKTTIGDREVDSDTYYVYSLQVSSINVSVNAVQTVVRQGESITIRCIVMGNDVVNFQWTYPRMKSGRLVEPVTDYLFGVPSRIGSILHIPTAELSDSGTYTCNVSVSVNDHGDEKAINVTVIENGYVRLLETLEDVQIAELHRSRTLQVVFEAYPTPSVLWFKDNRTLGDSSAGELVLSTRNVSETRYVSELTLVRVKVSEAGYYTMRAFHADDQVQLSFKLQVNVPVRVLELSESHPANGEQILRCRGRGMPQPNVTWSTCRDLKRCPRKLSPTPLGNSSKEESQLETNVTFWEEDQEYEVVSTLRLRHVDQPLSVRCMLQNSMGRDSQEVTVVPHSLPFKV
Procedure: (§1) The 18 unique hPDGFRB binders from libraries 1 and 2, and the 11 unique rPDGFRB binders from libraries 3 and 4 (Example 2.2, FIGS. 5 and 6) were produced and purified as described in examples 3 and 4. Then, the apparent affinities were determined with binding assays on hPDGFRB-ECD and rPDGFRB-ECD, respectively, the setup described in example 5.1. Results are summarized in FIGS. 5 and 6 for the hPDGFRB and rPDGFRB VHHs, respectively.
As Shown in FIG. 15C), the binding affinity of this construct for both hPDGFRB and rPDGFRB are below 5 nM. […] These observations make SP02P (or similar VHH) and SP26P (or similar VHH) particularly promising for use in the present invention.

LX-2 cells = experiment: Kinetic internalization assay on LX-2 cells; assay type: cell-based, human; conditions: FIG. 19 right panel
Procedure: (§2) The rate of internalization (endocytic rate constant, ke) of biparatopic constructs 13F11-13E8 and 13E8-13F11 was determined with a kinetic internalization assay on SCC-hIGF2R and SCC-rIGF2R cells. Briefly, 10 nM of IRD800CW conjugated 13F11-13E8 or 13E8-13F11 (conjugation method as described in example 10.2) was added to hIGF2R expressing SCC cells or rIGF2R expressing SCC cells and incubated at 37° C. for different time points up to 12 minutes. Internalization was then purposely halted by putting the cells on ice. Subsequently, cells were washed with cold PBS and the non-internalized VHH construct (bound fraction) was separated from the internalized construct (internalized fraction) using an acid-wash, as described above, after which the fluorescence of both fractions were measured. Both constructs internalize with similar endocytic rate constants in SCC-hIGF2R cells (ke around 1.5 min-1) and in SCC-rIGF2R cells (ke around 0.7 min-1) (FIGS. 17A and B, respectively).
To determine the rate of internalization of the VHH construct SP02P-SP26P, kinetic internalization assays on hPDGFRB expressing SCC cells and LX-2 cells were performed using a similar method as described for the IGF2R constructs in example 11.1.

hPDGFRB-ECD = hPDGFRB-ECD (Homo sapiens, UniProt P09619); experiment: Binding assay on hPDGFRB-ECD; conditions: IRDye800-conjugated, FIG. 15D
Procedure: The 15 unique hIGF2R-binding VHH (Example 2.1, FIG. 2) were produced and purified as described in examples 3 and 4. The apparent affinities were determined through binding assay on immobilized hIGF2R-ECD. Briefly, three-fold serial dilution series, starting from 1 μM, of each VHH were plated onto hIGF2R-ECD coated plates. VHH were allowed to bind for two hours after which plates were washed. Then, bound VHH was detected using a VHH-specific IgG antibody, followed by an IRD800CW-conjugated IgG-specific antibody. Plates were read out by fluorimetry.
as §1
Based on their high affinity and binding to non-overlapping hPDGRB epitopes, various biparatopic constructs were prepared based on VHHs SP02P, SP12P SP14P, SP26P and SP28P. The constructs were produced as described in example 7.1. and subjected to binding assay.
As Shown in FIG. 15C), the binding affinity of this construct for both hPDGFRB and rPDGFRB are below 5 nM. […]

[1] = target: T2, murine PDGFRB ectodomain (mPDGFRB-ECD) (Mus musculus, UniProt P05622); experiment: Binding assay on murine PDGFRB ectodomain; conditions: IRDye800-conjugated, FIG. 15D
T2 construct: varied across murine PDGFRB ectodomain (mPDGFRB-ECD), rPDGFRB-ECD and hPDGFRB-ECD
T2 sequence (P05622 32-531 limits assumed): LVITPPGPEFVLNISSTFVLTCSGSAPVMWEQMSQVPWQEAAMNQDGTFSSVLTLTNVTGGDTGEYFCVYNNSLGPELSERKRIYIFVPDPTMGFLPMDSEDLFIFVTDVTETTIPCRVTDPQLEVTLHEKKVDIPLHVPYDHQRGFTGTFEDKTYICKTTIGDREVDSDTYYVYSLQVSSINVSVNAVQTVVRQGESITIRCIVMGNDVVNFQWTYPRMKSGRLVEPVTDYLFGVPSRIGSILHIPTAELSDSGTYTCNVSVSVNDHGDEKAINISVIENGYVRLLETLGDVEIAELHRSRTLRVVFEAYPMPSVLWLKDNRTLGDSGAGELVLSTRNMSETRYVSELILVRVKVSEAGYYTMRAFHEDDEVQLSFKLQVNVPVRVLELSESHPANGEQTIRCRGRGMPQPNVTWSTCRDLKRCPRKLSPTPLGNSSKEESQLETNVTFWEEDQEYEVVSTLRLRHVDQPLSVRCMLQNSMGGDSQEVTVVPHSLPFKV

SCC-hPDGFRB cells = experiment: Kinetic internalization assay on SCC-hPDGFRB cells; assay type: cell-based, human
Procedure: as §2
To determine the rate of internalization of the VHH construct SP02P-SP26P, kinetic internalization assays on hPDGFRB expressing SCC cells and LX-2 cells were performed using a similar method as described for the IGF2R constructs in example 11.1. […]

SCC-rPGDFRB cells = experiment: Kinetic internalization assay on SCC-rPGDFRB cells; assay type: cell-based; conditions: IRDye800 conjugates, cells expressing rat PDGFRB
Procedure: as §2
To confirm improved internalization of biparatopic VHH constructs compared to the monomeric individual VHH components, kinetic internalization assays were performed using SCC-rPGDFRB and on SCC-hPDGFRB cells, using a similar method as described for the IGF2R constructs in example 11.1. […]

[2] = tested on: NIH 3T3 2.2 cells that were transiently transfected with hIGF2R; experiment: Internalization by fluorescence microscopy after acid wash, hIGF2R-transfected NIH 3T3 2.2 cells; assay type: cell-based, human; conditions: 25 nM Alexa fluor 647 conjugate
Procedure: (§3) First, Alexa fluor 647-conjugates of the VHH 13F11 and the biparatopic VHH construct […] were added to A549 cells that endogenously express hIGF2R (FIG. 16A), NIH 3T3 2.2 cells that were transiently transfected with hIGF2R (FIG. 16B), or mock transfected NIH 3T3 2.2 cells (as a negative control). For this, the cells were incubated with 25 nM of the VHH or the VHH construct. Before fluorescent microscopy readout, to ensure that only signal of internalized VHH or mouse anti-IGF2R was present, an acid wash (0.2M glycine-HCl, 150 mM NaCl, pH 2.3) was used to remove VHH or mouse anti-IGF2R bound to the target receptors on the cell surface. The efficiency of the acid wash procedure was verified by incubating the hIGF2R transfected NIH 3T3 2.2 cells with 13F11-13E8-A647 on ice and subsequently treating these cells with an acid wash while remaining on ice to prevent internalization (FIG. 16D). […] Summarizing, biparatopic 13F11-13E8 clearly internalizes in cells expressing hIGF2R on the cell surface.

[3] = tested on: SCC cells expressing mIGF2R; experiment: Kinetic internalization assay on SCC cells expressing mIGF2R; assay type: cell-based, murine; conditions: IRDye800 conjugates, FIG. 17C left panel
Procedure: as §2
(§4) Internalization of 13F11-13E8 and the corresponding monomeric VHHs 13F11 and 13E8 was assessed in a similar assay (FIG. 17A-C).

SCC-hIGF2R cells = experiment: Kinetic internalization assay on SCC-hIGF2R cells; assay type: cell-based, human
Procedure: as §2, §4

SCC-rIGF2R cells = experiment: Kinetic internalization assay on SCC-rIGF2R cells; assay type: cell-based, rat
Procedure: as §2, §4

[4] = tested on: A549 cells that endogenously express hIGF2R; experiment: Internalization by fluorescence microscopy after acid wash, A549 cells; assay type: cell-based, human; conditions: 25 nM Alexa fluor 647 conjugate
Procedure: as §3

[5] = In vivo pharmacokinetics in rats, serum ELISA on hIGF2R-ECD; set-up: species or system Sprague-Dawley rats; conditions: rats, i.v., approximately 3 mg/kg; ELISA LOD approximately 20 nM
Procedure: (§5) The in vivo pharmacokinetic properties of 13F11-13E8-ABD (F11E8-ABD; with ABD) and 13F11-13E8 (F11E8; without ABD) were compared in healthy Sprague-Dawley rats. In brief, rats were dosed intravenously with approximately 3 mg/kg body weight and blood samples were taken at different time points and the concentration of the VHH constructs were determined using an ELISA on immobilized hIGF2R-ECD. […] To further confirm the functionality of the ABD, biodistribution of F11E8-ABD and F11E8 were assessed by means of Positron Emission Tomography (PET). In brief, the constructs were radio-labelled with the positron emitter ^89Zr-desferral according to Verel et al (J Nucl Med. 2003; 44:1271-1281), and administered intravenously to rats after which biodistribution was assessed on subsequent time points by whole-body PET.

[6] = Biodistribution by whole-body PET of 89Zr-labelled constructs; assay type: in vivo; conditions: 89Zr-desferral labelled, i.v., rats
Procedure: as §5

[7] = tested on: LX2 cells (an activated hepatic stellate cell line); experiment: Live imaging of internalization with pHrodo-red conjugates in LX2 cells; assay type: cell-based, human; conditions: 50 nM pHrodo-red conjugate
Description: Internalization of monovalent 13F11 and biparatopics 13F11-13E8 and 13E8-13F11 was finally assessed in LX2 cells (an activated hepatic stellate cell line). For live imaging of internalization, the pH dependent Phrodo probe was used (ThermoFisher Scientific). This pH dependent probe becomes more fluorescent at acidic pH. Endosomes and lysosomes have a pH maintained at 6.5 and 4.5, respectively, compared to cytoplasmic pH of 7.0, and thus internalization of a VHH-pHrodo construct can be visualized when it internalizes via the endosomal pathway. LX-2 cells were incubated at 37° C. for 2 hours with 50 nM of pHrodo-red conjugated 13F11, 13F11-13E8 and 13E8-13F11 (conjugation method as described in example 10.2). Images were taken at 5 min. intervals using a wide-field PEXScope microscope (Nikon) with a mCherry filter and 40× oil objective.

[8] = tested on: mock transfected NIH 3T3 2.2 cells; experiment: Internalization by fluorescence microscopy after acid wash, mock transfected cells; assay type: cell-based; conditions: 25 nM Alexa fluor 647 conjugate, negative control cells
Procedure: as §3

[9] = 10 nM IRD800CW conjugate, 37° C., up to 12 minutes

hPDGFRB-ECD, sequence (P09619 33-532 limits assumed): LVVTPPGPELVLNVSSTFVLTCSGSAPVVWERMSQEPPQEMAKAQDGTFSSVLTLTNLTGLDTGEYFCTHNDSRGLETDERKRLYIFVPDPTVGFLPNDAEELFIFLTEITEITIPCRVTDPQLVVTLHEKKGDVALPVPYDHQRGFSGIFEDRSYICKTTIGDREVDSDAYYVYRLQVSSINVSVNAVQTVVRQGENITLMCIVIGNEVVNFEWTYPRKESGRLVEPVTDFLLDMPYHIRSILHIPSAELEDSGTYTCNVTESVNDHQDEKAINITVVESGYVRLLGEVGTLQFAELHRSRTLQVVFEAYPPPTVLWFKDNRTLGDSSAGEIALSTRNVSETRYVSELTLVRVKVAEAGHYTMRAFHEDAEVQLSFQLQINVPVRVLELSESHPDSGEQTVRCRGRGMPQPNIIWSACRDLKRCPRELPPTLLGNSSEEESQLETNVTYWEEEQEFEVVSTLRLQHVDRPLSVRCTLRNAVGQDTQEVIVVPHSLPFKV

B1: SP02P-SP26P: biparatopic PDGFRB VHH construct combining SP02P and SP26P (protein)
chain: EVQLVESGGGLVQAGGSLRLSCAASESISSIEQMGWFRQAPGKQRALVAINTYGGRTVYTNSVEGRFTMSRDSAKNMVYLQMTSLEPEDTAVYYCYAQTTAWRGGVWGQGTQVTVSSGGGGSGGGGSGGGGSEVQLVESGGGLVQAGGSLRLSCAASGRSFSSSVMGWFRQTPGKEREFVAATRWTAASTHYADSVKGRFTISRDHAENAVFLQMNSLKPEDTAVYYCAAGNYLDTAQYRYNYWGQGTQVTVSS
modifications: left off: small tags and cut ends
- affinity for rPDGFRB-ECD (rPDGFRB-ECD): high affinity
- internalization (LX-2 cells): observed
- affinity for hPDGFRB-ECD (hPDGFRB-ECD): high affinity
- affinity for mPDGFRB-ECD [1]: high affinity
- internalization (SCC-hPDGFRB cells; FIG. 19 left panel): observed
- internalization rate compared to monomeric VHH SP02 and SP26 (SCC-hPDGFRB cells; IRDye800 conjugates, cells expressing human PDGFRB): 5-10 fold
- internalization rate compared to monomeric VHH SP02 and SP26 (SCC-rPGDFRB cells): 5-10 fold

B2: 13F11-13E8: biparatopic IGF2R VHH construct, 13F11 and 13E8 fused with (Gly-Gly-Gly-Gly-Ser)3 linker, C-terminal cysteine (protein)
chain: EVQLVESGGRLVQPGDSLRLSCAASGRTFSDNAMGWFRQAPGKERRFVAGISWAGGSTYYSDSVKGRFTISRDNAKNTVYLQMNSLKPEDTAVYYCAAGLRAWVQRMPKDYNYWGQGTQVTVSSGGGGSGGGGSGGGGSEVQLVESGGGLVQAGGSLRLSCAASRSISPMGWYRQAPGKQRELVAIMPSSGPPIYADSVQGRFTISRDNAKNTVYLQMNSLKPEDTAVYYCNVGGGYWGQGTQVTVSS
modifications: left off: small tags and cut ends
notes: biparatopic IGF2R VHH construct, 13F11 and 13E8 fused with (Gly-Gly-Gly-Gly-Ser)3 linker, C-terminal cysteine
- internalization [2]: superior internalization
- internalization compared to the monomeric VHHs [3]: superior internalization
- endocytic rate constant, ke (SCC-hIGF2R cells; [9]): around 1.5 min-1
- internalization compared to the monomeric VHHs (SCC-hIGF2R cells; IRDye800 conjugates, FIG. 17C right panel): superior internalization
- endocytic rate constant, ke (SCC-rIGF2R cells; [9]): around 0.7 min-1
- internalization compared to the monomeric VHHs (SCC-rIGF2R cells; IRDye800 conjugates, FIG. 17C middle panel): superior internalization
- internalization [4]: clearly internalized
- clearance from circulation / detectability in serum [5]: could not be detected anymore within two hours after injection
- biodistribution (PET) [6]: swiftly accumulated in the kidneys
- intracellular localisation of internalized construct [7]: accumulate into perinuclear compartments (endosomes/lysosomes)
- increase in intracellular fluorescence (internalization) ([7]; 37° C., compared to monovalent 13F11 / between biparatopics): higher rate of internalization
- internalization [8]: no internalization was observed
